Values of other authors in article PMC3508151.
Like-named read-outs stand apart in the source and are kept apart here.

Key:
IL-13Rα1 (Homo sapiens) [1] = biological target: IL-13Rα1 (Homo sapiens) (UniProt P78552); conditions: cited from earlier work
IL-13Rα1 (Homo sapiens) [2] = biological target: IL-13Rα1 (Homo sapiens) (UniProt P78552); conditions: cited from earlier work; remark: listed apart in the source

Sequence of IL-13Rα1 (Homo sapiens) (P78552 22-343): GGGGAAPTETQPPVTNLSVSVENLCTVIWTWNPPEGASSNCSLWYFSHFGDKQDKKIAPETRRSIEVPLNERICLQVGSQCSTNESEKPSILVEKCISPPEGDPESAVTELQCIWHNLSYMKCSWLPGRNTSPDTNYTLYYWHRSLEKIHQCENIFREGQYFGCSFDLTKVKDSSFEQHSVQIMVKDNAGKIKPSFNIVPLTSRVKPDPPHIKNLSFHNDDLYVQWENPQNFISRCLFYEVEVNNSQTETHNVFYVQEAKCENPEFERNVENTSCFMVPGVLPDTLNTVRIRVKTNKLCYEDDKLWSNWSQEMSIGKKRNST
Sequence of IL-13 (P35225 25-146): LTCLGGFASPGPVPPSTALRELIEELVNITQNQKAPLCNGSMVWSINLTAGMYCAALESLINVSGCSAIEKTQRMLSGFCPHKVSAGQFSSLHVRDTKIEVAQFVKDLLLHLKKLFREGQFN
Sequence of IL-4 (P05112 25-153): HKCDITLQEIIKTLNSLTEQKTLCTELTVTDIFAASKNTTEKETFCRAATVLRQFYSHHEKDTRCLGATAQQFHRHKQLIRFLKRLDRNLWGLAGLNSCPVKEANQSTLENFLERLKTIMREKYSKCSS

In the case of IL-4 (from UniProt P05112), the Kd (IL-13Rα1 (Homo sapiens) [1]) is listed as > 1000 nM.

In the case of IL-13, the Kd (IL-13Rα1 (Homo sapiens) [2]) is listed as 30 nM.
